Reference: US20230139680A1 (TEXAS A AND M UNIVERSITY SYSTEM, published 2023)
Starred links: 1 amine or outer side, 2 acyl side, 3 side chain; linkers in the order of their positions; H or OH if unused. Positions of bridges follow the written chain, without caps; N, C: chain ends. Non-standard residues stand in square brackets, D forms with d. No end group written: not given here. *: point of attachment. AcrK = N6-acryloyl-L-lysine, C=CC(=O)NCCCC[C@H](N[*:1])C(=O)[*:2]; 5FAM = O=C1OC2(c3ccc(O)cc3Oc3cc(O)ccc32)c2ccc(C(=O)*)cc21

How the values were obtained:
[1] = target: T1, HDAC8 (UniProt Q9BY41 1-377); test: fluorescence polarization, 25 nM 5-FAM peptide, protein titrated
T1 construct: Expressed in E. coli BL21(DE3) CodonPlus, purified on Ni-NTA and Q Sepharose; also called HAC8; histone deacetylase 8; not shown: C-terminal TEV site and His6 tag by the plasmid's name (pHD4-HDAC8-TEV-His6)
T1 sequence (looked up): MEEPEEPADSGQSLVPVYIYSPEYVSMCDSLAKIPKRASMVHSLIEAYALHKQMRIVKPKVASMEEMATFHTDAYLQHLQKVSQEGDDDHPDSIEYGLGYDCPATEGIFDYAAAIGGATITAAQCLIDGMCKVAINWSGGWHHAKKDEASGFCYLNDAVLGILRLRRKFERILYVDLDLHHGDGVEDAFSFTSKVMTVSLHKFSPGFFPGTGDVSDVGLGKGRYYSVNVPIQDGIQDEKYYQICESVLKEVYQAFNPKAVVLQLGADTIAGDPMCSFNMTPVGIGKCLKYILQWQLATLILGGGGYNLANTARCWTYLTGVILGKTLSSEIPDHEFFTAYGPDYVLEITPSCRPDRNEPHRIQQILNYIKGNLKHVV

[2] = target: T1, HDAC8; test: cell-based or functional assay
[3] = target: T1, HDAC8; test: fluorescence polarization (summary sentence of the example)
Protocol: The fluorescence polarization was measured in a microplate reader at Ex/Em=490 nm/520 nm.

B1: 5-FAM-conjugated LinH8a (peptide)
peptide: CQSLWMNKK(5FAM)-NH2
modifications: N-terminus assumed
SMILES: CSCC[C@H](NC(=O)[C@H](Cc1c[nH]c2ccccc12)NC(=O)[C@H](CC(C)C)NC(=O)[C@H](CO)NC(=O)[C@H](CCC(N)=O)NC(=O)[C@@H](N)CS)C(=O)N[C@@H](CC(N)=O)C(=O)N[C@@H](CCCCN)C(=O)N[C@@H](CCCCNC(=O)c1ccc2c(c1)C(=O)OC21c2ccc(O)cc2Oc2cc(O)ccc21)C(N)=O
notes: Linear counterpart with plain Lys in place of AcrK; also called linear counterpart of 5FAM-CycH8a
- Kd [1]: > 50 µM

Binder: CQSLWMN[AcrK]K(5FAM)-NH2 (bridge 1-8; not fully specified (bridges), also called 5FAM-CycH8a; 5FAM-cycH8a) [5-FAM-conjugated CycH8a]
- IC50 of inhibition of HDAC8 deacetylation of Boc-AcK-AMC (fluorogenic, trypsin-coupled activity assay) [2]: 9.7 µM
- fold stronger affinity than its linear counterpart [3]: 6 fold
- Kd [1]: 7.1 µM
